Measurements published in patent US11497796B2, “Agents directed against a cis RGMa/neogenin interaction or lipid rafts and use of the same in methods of treatment” (UNIVERSITY HEALTH NETWORK, priority 2013, dated 2022).

Tests used:
4Ig-domain of DCC = assay: AP binding assay on coated DCC-4Ig; conditions: closest Neogenin homologue, specificity control
Description: (A) Different RGMa-AP proteins were incubated on wells coated with the 4Ig 6FNIII or BSA. […] Data were average±SEM (n=3 independent experiments), *p<0.005. (B) Quantification of a binding assay where 4Ig-AP and 6FNIII-AP proteins were assayed on wells coated with proteins from different RGMa regions. […] Thus, two N-RGMa fragments were identified (N-Raft and N-RGMa77-113) that bound the 4Ig and 6FNIII domains in Neogenin, respectively. C-RGMa proteins and full length RGMa only bound 6FNIII. Data were average±SEM (n=3 independent experiments), *p<0.005. […] Quantification of a binding assay where N-RGMa-AP was assayed on wells coated with proteins DCC-4Ig and Neogenin-4Ig. In this experiment Neogenin-4Ig but not DCC-4Ig interacted with N-Raft-AP. Data were average±SEM (n=4 independent experiments), *p<0.005. (D) Cis-interaction between the 4Ig domain of Neogenin and N-Raft is required for localization of Neogenin in lipid rafts. HEK-293 cells were transfected with Neogenin and RGMa constructs. BMP2 (100 nM) was added to the medium 1 hour before cells were collected. Western blotting was performed following lipid raft fractionation. Flotillin was used as a marker for lipid raft fractions, whereas the transferrin receptor (TfR) was used as a marker for heavy membrane-fractions. Every experiment was repeated twice. […]

brain after stroke = assay: Cerebral focal ischemia model (MCA clot occlusion); format: in vivo, rat; conditions: daily injections
Description: In all experiments, female Sprague-Dawley rats weighing 200-250 g were used. Briefly, focal cerebral ischemia was induced by injection of a preformed clot into the MCA. The rats were initially anesthetized with 3.0% isoflurane and then maintained with 1.5% isoflurane in a mixture of 30:70 O2 and […] with a face mask during surgery. Body temperature was maintained at 37° C. in the normothermic rats with a heating pad for the duration of surgery and in the immediate postoperative period until the animal was fully recovered from anesthesia.
A 1.5-cm longitudinal incision was made in the midline of the ventral cervical skin. The right common carotid artery (CCA), right internal carotid artery (ICA), and right external carotid artery (ECA) were exposed. The distal portion of the ECA was ligated and cut. A modified polyethylene-10 catheter, filled with bovine thrombin (Thrombostat, TM Warner-Lambert Co.), was introduced into the lumen of the right ECA via a small puncture. Ten micro liters of blood was withdrawn into the catheter and retained for 15 minutes to allow formation of a clot. […] After returning to their cage, animals were monitored for normal recovery.
The infarct volume was expressed as a percentage of the total volume from the ipsilateral hemisphere. Brain edema was determined by calculating the volume difference between the 2 hemispheres and dividing by the volume of the left hemisphere.
Briefly, 7 days after MCA occlusion the anesthetized rats were killed. […] The images were analyzed and the determination of infarct volume and edema was blinded. The infarct volume was calculated using the following formula: Infarct volume=[left hemisphere volume−(the right hemisphere volume−measured infarct volume)]/left hemisphere volume.
Brain swelling was determined using the following formula: Swelling (edema)=(right hemisphere volume−left hemisphere volume)/left hemisphere volume. […]
Briefly, neurological deficits were determined using a modified Bederson's scoring system. […] Mortality was also recorded. […]

| Molecule | interaction with the 4Ig-domain of DCC (4Ig-domain of DCC) | brain edema compared to control (brain after stroke) | infarct volume compared to control (brain after stroke) | behavioral deficits compared to control (brain after stroke; Bederson test) |
| --- | --- | --- | --- | --- |
| N-Raft: peptide spanning amino acids 28-73 of RGMa (SEQ ID NO:2) (SPCKILKCNSEFWAATSGSHHLGAEETPEFCTALRAYAHCTRRTAR; N-Raft - amino acids 28-73 of RGMa) | No significant interaction | – | – | – |
| 4Ig: four immunoglobulin-like domains of Neogenin, amino acids 1 to 383 of Accession No. AAC59662 (SEQ ID NO:1) (protein, listed as Gallus gallus, Neogenin - Accession No. AAC59662) RSGPRSPLTGSVVRTFTPFYFLVEPMDILSVRGASVIMNCSSYCETPPKIEWKKDGTLLNLVSDDRRQLLPDGSLLINSVVHSKHNKPDEGYYQCVATVESLGSIVSRTAKLTVAGLPRFTSQPELSSVYKGNSAILNCEVNVDLAPFVRWEQDRQPLSLDDRVFKLPSGALLIGNATDTDGGFYRCVIESGGTPKYSEEAELKILPDPEEPQSLVFVRQPSSLTKVTGQNAVFPCVAGGFPTPYVRWTKNGEELITEDSERFALRAGGSLLISDVTEEDVGTYTCIADNENETIEAQAELAVQVPPEFLKRPANIYAHESMDIVFECEVTGKPTPTVKWVKNGDVVIPSDYFKIVKEHNLQVLGLVKSDEGFYQCIAENDVGNAQAGAQLIILDLDVAIPTLPPTSLTSATNDHLAPATTGPLPTAPRDVVATLVSTRFIRLTWRTPVSDPQGDNLTYSIFYTKEGINRERVENTSRPGETQVMIQNLMPETVYVFRVVAQNKHGHGESSAPLKVATQPEVQLPGPAPNIRAYAGSPTSVTVTWETPLSGNGEIQNYKLYYMEKGQDSEQDVDVAGLSYTITGLKKYTEYSFRVVAYNKHGPGVSTQDVVVRTLSDVPSAAPQNLTLEARNSKSIMLHWQPPPAGTHSGQITGYKIRYRKVSRKSDVTESVGGTQLFQLIEGLERGTEYNFRIAAMTVNGTGPATDWVSAETFESDLDESRVPEVPSSLHVRPLVTSIVVSWTPPENQNIVVRGYAIGYGIGSPHAQTIKVDYKQRYYTIENLDPSSHYVITLKAFNNVGEGIPLYESAVTRPHSDTSEVDLFVINAPYTPVPDPSPMMPPVGVQASILSHDTIRITWADNSLPKNQKITDARYYTVRWKTNIPANTKYKTANATTLSYLVTGLKPNTLYEFSVMVTKGRRSSTWSMTAHGTTFELVPTSPPKDVTVVSKEGKPRTIIVNWQPPSEANGKITGYIIYYSTDVNAEIHDWVIEPVVGNRLTHQIQELTLDTPYYFKIQARNSKGMGPMSEAVQFRTPKAESSDKMPNDQASGSAGKGSRPVDVGPDYKPPLSGSNSPHGSPTSPLDSNMLLVIIVSVGVITIVIVVIVAVFCTRRTTSHQKKKRAACKSVNGSHKYKGNSKDVKPPDLWIHHERLELKPIDKSPDPNPIMTDTPIPRNSQDITPVDNSMDSNIHQRRNSYRGHESEDSMSTLAGRRGMRPKMMMPFDSQPPQPVISAHPIHSLDNPHHHFHSGSLASPTRSYLHHQVSPWPVGTSMSHSDRANSTESVRNTPSSDTMPASSSQPCADHQDPDSSSGAYLGSAQEEDAAQSLPTAHVRPSHPLKSFAVPAVPAAGSAYDPTLPSTPLLTQQAPSHPVHSVKTASIGTLGRTRPPMPVVVPSAPDVQETTRMLEDSESSYEPDELTKEMAHLEGLMKDLNAITTA | – | significantly reduced | significantly reduced | significantly reduced |
